# In patent US20040265797A1 (CHIRON, published 2004):
# Square brackets hold non-standard residues; d marks the D form. Ends that are not written are not given here.
# B1: Analog 96 (peptide)
# peptide: AEFFKLGPNGYVYLHS[dA]-NH2
# modifications: N-terminus assumed
# SMILES: CC(C)C[C@H](NC(=O)[C@H](CCCCN)NC(=O)[C@H](Cc1ccccc1)NC(=O)[C@H](Cc1ccccc1)NC(=O)[C@H](CCC(=O)O)NC(=O)[C@H](C)N)C(=O)NCC(=O)N1CCC[C@H]1C(=O)N[C@@H](CC(N)=O)C(=O)NCC(=O)N[C@@H](Cc1ccc(O)cc1)C(=O)N[C@H](C(=O)N[C@@H](Cc1ccc(O)cc1)C(=O)N[C@@H](CC(C)C)C(=O)N[C@@H](Cc1c[nH]cn1)C(=O)N[C@@H](CO)C(=O)N[C@H](C)C(N)=O)C(C)C
# B2: Analog 88 (peptide)
# peptide: AEFFKLG[dP]NGYVYLHSA-NH2
# modifications: N-terminus assumed
# SMILES: CC(C)C[C@H](NC(=O)[C@H](CCCCN)NC(=O)[C@H](Cc1ccccc1)NC(=O)[C@H](Cc1ccccc1)NC(=O)[C@H](CCC(=O)O)NC(=O)[C@H](C)N)C(=O)NCC(=O)N1CCC[C@@H]1C(=O)N[C@@H](CC(N)=O)C(=O)NCC(=O)N[C@@H](Cc1ccc(O)cc1)C(=O)N[C@H](C(=O)N[C@@H](Cc1ccc(O)cc1)C(=O)N[C@@H](CC(C)C)C(=O)N[C@@H](Cc1c[nH]cn1)C(=O)N[C@@H](CO)C(=O)N[C@@H](C)C(N)=O)C(C)C
# B3: Analog 82 (peptide)
# peptide: [dA]EFFKLGPNGYVYLHSA-NH2
# modifications: N-terminus assumed
# SMILES: CC(C)C[C@H](NC(=O)[C@H](CCCCN)NC(=O)[C@H](Cc1ccccc1)NC(=O)[C@H](Cc1ccccc1)NC(=O)[C@H](CCC(=O)O)NC(=O)[C@@H](C)N)C(=O)NCC(=O)N1CCC[C@H]1C(=O)N[C@@H](CC(N)=O)C(=O)NCC(=O)N[C@@H](Cc1ccc(O)cc1)C(=O)N[C@H](C(=O)N[C@@H](Cc1ccc(O)cc1)C(=O)N[C@@H](CC(C)C)C(=O)N[C@@H](Cc1c[nH]cn1)C(=O)N[C@@H](CO)C(=O)N[C@@H](C)C(N)=O)C(C)C
# B4: Analog 95 (peptide)
# peptide: AEFFKLGPNGYVYLH[dS]A-NH2
# modifications: N-terminus assumed
# SMILES: CC(C)C[C@H](NC(=O)[C@H](CCCCN)NC(=O)[C@H](Cc1ccccc1)NC(=O)[C@H](Cc1ccccc1)NC(=O)[C@H](CCC(=O)O)NC(=O)[C@H](C)N)C(=O)NCC(=O)N1CCC[C@H]1C(=O)N[C@@H](CC(N)=O)C(=O)NCC(=O)N[C@@H](Cc1ccc(O)cc1)C(=O)N[C@H](C(=O)N[C@@H](Cc1ccc(O)cc1)C(=O)N[C@@H](CC(C)C)C(=O)N[C@@H](Cc1c[nH]cn1)C(=O)N[C@H](CO)C(=O)N[C@@H](C)C(N)=O)C(C)C
# B5: Analog 94 (peptide)
# peptide: AEFFKLGPNGYVYL[dH]SA-NH2
# modifications: N-terminus assumed
# SMILES: CC(C)C[C@H](NC(=O)[C@H](CCCCN)NC(=O)[C@H](Cc1ccccc1)NC(=O)[C@H](Cc1ccccc1)NC(=O)[C@H](CCC(=O)O)NC(=O)[C@H](C)N)C(=O)NCC(=O)N1CCC[C@H]1C(=O)N[C@@H](CC(N)=O)C(=O)NCC(=O)N[C@@H](Cc1ccc(O)cc1)C(=O)N[C@H](C(=O)N[C@@H](Cc1ccc(O)cc1)C(=O)N[C@@H](CC(C)C)C(=O)N[C@H](Cc1c[nH]cn1)C(=O)N[C@@H](CO)C(=O)N[C@@H](C)C(N)=O)C(C)C
# Target: T1, Soluble recombinant human urokinase receptor (suPAR) (human, UniProt Q03405 23-299, limits assumed, biotinylated in the plate assays (sites not given))
# T1 construct: Only called a soluble truncated form of the urokinase receptor; also called soluble uPAR; biotinylated suPAR
# Test: competition with phage displaying peptide 9 for soluble uPAR; * quantity tested could have been lower
# Experimental: (§1) The final anti-M13 conjugate dilution was 1:4000.
# (§2) These concentrations were calculated based on the synthesis reactions.
# T1 sequence (Q03405 23-299 limits assumed): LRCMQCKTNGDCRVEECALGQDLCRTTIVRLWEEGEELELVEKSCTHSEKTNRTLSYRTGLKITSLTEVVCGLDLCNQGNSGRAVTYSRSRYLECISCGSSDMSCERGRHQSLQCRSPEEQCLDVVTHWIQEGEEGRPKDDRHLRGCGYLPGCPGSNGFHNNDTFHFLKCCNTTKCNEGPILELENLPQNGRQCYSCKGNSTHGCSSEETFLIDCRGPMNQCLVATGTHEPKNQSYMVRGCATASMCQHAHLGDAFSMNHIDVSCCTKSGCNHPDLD
row,Binder,% Inhibition at 2.5 uM [%]
1,B1,38
2,B2,80
3,B3,24

# Target: T1, Soluble recombinant human urokinase …
# Test: alanine scan of peptide 9; competition with phage displaying peptide 9 for soluble uPAR
# Experimental: Streptavidin, 100 μl (0.1 mg/ml) in 50 mM Na₂CO₃, pH 9.6, was added to MaxiSorp wells (Nunc), incubated overnight at 4 C, and then washed with PBS/BSA. […] Competitive peptide inhibitors were added to the wells immediately prior to addition of the bacteriophage. The wells were incubated for one hour at room temperature, then washed and bound bacteriophage eluted with 6M urea in 0.1N HCl, pH 2.5. After 15 minutes, the urea eluate was brought to neutral pH by addition of 2M Tris base and the bacteriophage titers of input stocks and elutions measured by plaque formation assay. Results were expressed as the percent of input bacteriophage which bind to the wells. Alternatively, the amount of bacteriophage was determined in an ELISA where phage were preincubated with HRP-conjugated anti-M13 antibody for 30 minutes at room temperature before dispensing into wells prepared as above and incubated for one hour at room temperature. The final anti-M13 conjugate dilution was 1:4000. After washing, TMB substrate (100 μl/well) was added and color development was stopped with 0.8N H₂SO₄ (100 μl/well). The absorbance at 450 nm was then measured in a 96 well plate reader.
# Approximately 10⁸ plaque forming units of the phage were used in the assay.
row,Binder,binding result
1,"AEFFKAGPNGYVYLHSA-NH2 [Analog 69 (peptide 9, Leu at position 6 to alanine)]",no binding
2,"AEFFKLGPNGYVALHSA-NH2 [Analog 76 (peptide 9, Tyr at position 13 to alanine)]",no binding
3,"AEFFKLGPNGAVYLHSA-NH2 [Analog 74 (peptide 9, Tyr at position 11 to alanine)]",no binding
4,"AEFFKLGPNGYAYLHSA-NH2 [Analog 75 (peptide 9, Val at position 12 to alanine)]",no binding

# Target: T1, Soluble recombinant human urokinase …
# Test: competition with phage displaying peptide 9 for soluble uPAR
# Experimental: as §1, §2
Binder,% Inhibition at 5 uM [%],% Inhibition at 2.5 uM [%]
B1,40,
B4,59,47
B2,76,
B5,41,36
B3,41,
